Residue numbers refer to the chain shown, from its start.
B1: COMBO_Rd4_0.6nM_C21 (antibody, V domains shown)
VH: EVQLLESGGGLVQPGGSLRLSCAASGFTFSSYPMSWVRQAPGKGLEWVSAIGGSGGSLPYADSVKGRFTISRDNSKNTLYLQMNSLRAEDTAVYYCARYWPMDSWGQGTLVTVSS
VL: EIVLTQSPGTLSLSPGERATLSCRASQSVSSSYLAWYQQKPGQAPRLLMYDASIRATGIPDRFSGSGSGTDFTLTISRLEPEDFAVYYCQQYQSWPLTFGQGTKVEIK
notes: IgG
B2: A02_Rd4_0.6nM_C01 (antibody, V domains shown)
VH: B1 VH with P33A, S35N, G52L, G53S, L58T, P59Y, S104I
VL: B1 VL with A25G, S26G
notes: IgG; also called P5AC1
B3: A02_Rd4_0.6nM_C06 (antibody, V domains shown)
VH: B1 VH with P33A, S35N, G52S, G53D, L58A, P59W, D103S, S104L
VL: B1 VL with S31V, S32L, S94R
notes: IgG
B4: A02_Rd4_0.6nM_C10 (antibody, V domains shown)
VH: B1 VH with P33A, S35N, G52S, S54W
VL: B1 VL with S31A, S32Q, S94R
notes: IgG
B5: A02_Rd4_6nM_C03 (antibody, V domains shown)
VH: B1 VH with P33A, S35N, G52S, G53D, L58T, P59Y, S104I
VL: B1 VL with S31N, S32L, S94G
notes: IgG
B6: A02_Rd4_6nM_C05 (antibody, V domains shown)
VH: B1 VH with P33A, S35N, G52F, G53A, L58T, P59Y, D103T, S104P
VL: B1 VL with S94R
notes: IgG
B7: A02_Rd4_0.6nM_C09 (antibody, V domains shown)
VH: B1 VH with P33A, S35N, G52S, G53D, L58M, P59W, D103S, S104L
VL: B1 VL
notes: IgG
B8: A02_Rd4_0.6nM_C26 (antibody, V domains shown)
VH: B1 VH with P33A, S35N, G52L, G53M, L58T, P59Y, D103S, S104L
VL: B1 VL with R24G, A25P
notes: IgG
B9: A02_Rd4_0.6nM_C03 (antibody, V domains shown)
VH: B1 VH with P33A, S35N, G52S, G53D, L58K, P59W, D103S, S104L
VL: B1 VL with Q93F, S94T
notes: IgG
B10: A02_Rd4_6nM_C04 (antibody, V domains shown)
VH: B1 VH with P33A, S35N, G52M, G53S, S57P, P59Y, D103A, S104L
VL: B1 VL with S31A, S32L, S94V
notes: IgG
B11: A02_Rd4_0.6nM_C13 (antibody, V domains shown)
VH: B1 VH with P33A, S35N, G52S, G53D, S57Y, L58R, P59Y, D103S, S104L
VL: B1 VL with L34W, Q93E
notes: IgG

Biological target: Human BCMA (human) (UniProt Q02223)
Assay: SPR, IgG on chip, huBCMA analyte

| Binder | Kd | koff | kon |
| --- | --- | --- | --- |
| B1 | 0.009 nM | 0.000115 s⁻¹ | 1.34e+07 M⁻¹ s⁻¹ |
| B2 | 0.193 nM | 0.000915 s⁻¹ | 4.74e+06 M⁻¹ s⁻¹ |
| B3 | 0.021 nM | 7.37e-05 s⁻¹ | 3.49e+06 M⁻¹ s⁻¹ |
| B4 | 0.129 nM | 0.000296 s⁻¹ | 2.3e+06 M⁻¹ s⁻¹ |
| B5 | 0.075 nM | 0.000126 s⁻¹ | 1.69e+06 M⁻¹ s⁻¹ |
| B6 | 0.099 nM | 0.000308 s⁻¹ | 3.1e+06 M⁻¹ s⁻¹ |
| B7 | 0.018 nM | 9.75e-05 s⁻¹ | 5.5e+06 M⁻¹ s⁻¹ |
| B8 | 0.061 nM | 0.000443 s⁻¹ | 7.26e+06 M⁻¹ s⁻¹ |
| B9 | 0.043 nM | 0.000182 s⁻¹ | 4.27e+06 M⁻¹ s⁻¹ |
| B10 | 0.135 nM | 0.000603 s⁻¹ | 4.47e+06 M⁻¹ s⁻¹ |
| B11 | 0.066 nM | 0.000566 s⁻¹ | 8.53e+06 M⁻¹ s⁻¹ |

Biological target: T1, cynomolgus monkey BCMA (cynomolgus monkey, UniProt A0A2K5UD97 1-53)
T1 construct: Soluble analyte in SPR; construct not described; also called cyBCMA; Cyno BCMA
T1 sequence (A0A2K5UD97 entry or part of it): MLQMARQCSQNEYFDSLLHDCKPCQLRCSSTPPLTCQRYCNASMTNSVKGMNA
Assay: SPR, IgG on chip, cyBCMA analyte

| Binder | Kd | koff | kon |
| --- | --- | --- | --- |
| B1 | 0.084 nM | 0.000304 s⁻¹ | 3.63e+06 M⁻¹ s⁻¹ |
| B2 | 0.655 nM | 0.00157 s⁻¹ | 2.39e+06 M⁻¹ s⁻¹ |
| B3 | 0.058 nM | 0.000105 s⁻¹ | 1.81e+06 M⁻¹ s⁻¹ |
| B4 | 1.84 nM | 0.00163 s⁻¹ | 883000 M⁻¹ s⁻¹ |
| B5 | 0.158 nM | 0.000185 s⁻¹ | 1.17e+06 M⁻¹ s⁻¹ |
| B6 | 0.95 nM | 0.00129 s⁻¹ | 1.36e+06 M⁻¹ s⁻¹ |
| B7 | 0.082 nM | 0.000174 s⁻¹ | 2.13e+06 M⁻¹ s⁻¹ |
| B8 | 0.941 nM | 0.00256 s⁻¹ | 2.71e+06 M⁻¹ s⁻¹ |
| B9 | 0.201 nM | 0.000426 s⁻¹ | 2.12e+06 M⁻¹ s⁻¹ |
| B10 | 0.381 nM | 0.000831 s⁻¹ | 2.18e+06 M⁻¹ s⁻¹ |
| B11 | 0.56 nM | 0.00128 s⁻¹ | 2.29e+06 M⁻¹ s⁻¹ |

— US20190241669A1 (published 2019)
